pIC50, pKd: −log10 of the molar value.
Legend:
HLA-B*57:01 = assay: IEDB peptide-MHC binding, purified MHC/competitive/radioactivity; filed as Kd, often an IC50 or EC50 that approximates it; ≥ and ≤ were set here for values at or beyond the usual limits of such assays
HLA-B*58:01 = assay: as above
HLA-A*02:01 = assay: as above
HLA-A*02:02 = assay: as above
HLA-A*02:03 = assay: as above
HLA-A*02:06 = assay: as above
HLA-A*03:01 = assay: as above
HLA-A*11:01 = assay: as above
HLA-A*31:01 = assay: as above
HLA-A*33:01 = assay: as above
HLA-A*68:01 = assay: as above
HLA-A*68:02 = assay: as above
HLA-B*07:02 = assay: as above
HLA-B*35:01 = assay: as above
HLA-B*51:01 = assay: as above
HLA-B*53:01 = assay: as above
HLA-B*54:01 = assay: as above
HLA-A*01:01 = assay: as above; conditions: source organism: Hepacivirus hominis
HLA-B*08:01 = assay: as above; conditions: source organism: Hepacivirus hominis
HLA-A*32:01 = assay: as above; conditions: source organism: Dengue virus 3 Martinique/1243/1999
HLA-B*15:01 = assay: as above
HLA-A*24:02 = assay: IEDB peptide-MHC binding, purified MHC/competitive/fluorescence; ≥ and ≤ were set here for values at or beyond the usual limits of such assays
[1] = source organism: Dengue virus 3 Martinique/1243/1999
[2] = source organism: Vaccinia virus WR
[3] = source organism: Hepacivirus hominis
[4] = source organism: Dengue virus 2 Jamaica/1409/1983
[5] = source organism: Dengue virus 4 Philippines/H241/1956

Q: With QSSSMRKTDW as the sequence, how does the pKd (HLA-B*57:01; [1]) read?
A: 6.82

Q: And the pKd (HLA-B*58:01; [1])?
A: 7.12

Q: What does the source list for RLLIWAYLSK?
A: pKd (HLA-A*02:01; [2]): 5.30; pKd (HLA-A*02:02; [2]): ≤ 4.37; pKd (HLA-A*02:03; [2]): 4.76; pKd (HLA-A*02:06; [2]): 4.83; pKd (HLA-A*03:01; [2]): 9.80; pKd (HLA-A*11:01; [2]): 9.94; pKd (HLA-A*31:01; [2]): 6.35; pKd (HLA-A*33:01; [2]): 5.31; pKd (HLA-A*68:01; [2]): 5.83; pKd (HLA-A*68:02; [2]): ≤ 4.39; pKd (HLA-B*07:02; [2]): ≤ 4.16; pKd (HLA-B*35:01; [2]): ≤ 4.16; pKd (HLA-B*51:01; [2]): ≤ 4.47; pKd (HLA-B*53:01; [2]): 4.98; pKd (HLA-B*54:01; [2]): 4.95

Q: RNWAHSSL was tested. Which pKd (HLA-A*01:01) did it give?
A: 5.66

Q: And the pKd (HLA-A*02:01; [3])?
A: ≤ 4.16

Q: And the pKd (HLA-A*02:02; [3])?
A: ≤ 4.15

Q: And the pKd (HLA-A*02:03; [3])?
A: ≤ 4.06

Q: What about the pKd (HLA-A*02:06; [3]) of the same sequence?
A: ≤ 4.23

Q: And the pKd (HLA-A*03:01; [3])?
A: ≤ 4.06

Q: And the pKd (HLA-A*11:01; [3])?
A: ≤ 4.06

Q: And the pKd (HLA-A*31:01; [3])?
A: 4.75

Q: And the pKd (HLA-A*33:01; [3])?
A: ≤ 4.06

Q: And the pKd (HLA-A*68:01; [3])?
A: ≤ 4.06

Q: What about the pKd (HLA-A*68:02; [3]) of the same sequence?
A: ≤ 4.16

Q: And the pKd (HLA-B*07:02; [3])?
A: ≤ 4.24

Q: What about the pKd (HLA-B*08:01) of the same sequence?
A: ≤ 4.17

Q: What about the pKd (HLA-B*35:01; [3]) of the same sequence?
A: ≤ 4.06

Q: What about the pKd (HLA-B*51:01; [3]) of the same sequence?
A: ≤ 4.29

Q: And the pKd (HLA-B*53:01; [3])?
A: ≤ 4.31

Q: What about the pKd (HLA-B*54:01; [3]) of the same sequence?
A: ≤ 4.06

Q: How did the pKd (HLA-A*32:01) turn out when RSLIGNEEF was run?
A: 5.33

Q: What about the pKd (HLA-B*58:01; [1]) of the same sequence?
A: 7.81

Q: How did the pKd (HLA-B*57:01; [1]) turn out when RTSWALCEAL was run?
A: 5.77

Q: With SASSMVNGVV as the sequence, how does the pKd (HLA-A*68:02; [4]) read?
A: 7.99

Q: And the pKd (HLA-B*57:01; [4])?
A: 6.64

Q: And the pKd (HLA-B*58:01; [4])?
A: 5.69

Q: With SINNIDPHF as the sequence, how does the pKd (HLA-B*15:01; [2]) read?
A: 7.92

Q: TLAAMPEEE was tested. Which pIC50 (HLA-A*24:02; source organism: Zaire ebolavirus) did it give?
A: 5.00

Q: How did the pKd (HLA-B*15:01; [5]) turn out when TQVGTLALSL was run?
A: 7.24

Q: What does the source list for TVLGLGLSLK?
A: pKd (HLA-A*02:01; [2]): ≤ 4.16; pKd (HLA-A*02:02; [2]): ≤ 4.21; pKd (HLA-A*02:03; [2]): ≤ 4.15; pKd (HLA-A*02:06; [2]): ≤ 4.29; pKd (HLA-A*03:01; [2]): 7.71; pKd (HLA-A*11:01; [2]): 8.79; pKd (HLA-A*31:01; [2]): 6.05; pKd (HLA-A*33:01; [2]): 4.84; pKd (HLA-A*68:01; [2]): 7.13; pKd (HLA-A*68:02; [2]): ≤ 4.16; pKd (HLA-B*07:02; [2]): ≤ 4.16; pKd (HLA-B*35:01; [2]): ≤ 4.62; pKd (HLA-B*51:01; [2]): ≤ 4.21; pKd (HLA-B*53:01; [2]): ≤ 4.16; pKd (HLA-B*54:01; [2]): ≤ 4.16

Q: VGVNTQETI was tested. Which pIC50 (HLA-A*24:02; source organism: Sudan ebolavirus) did it give?
A: 5.12

Q: Which results are given for VSSVNTTSKM?
A: pKd (HLA-B*57:01; [5]): 4.92; pKd (HLA-B*58:01; [5]): 5.84

Source: the Immune Epitope Database (IEDB)
